Results as given in patent US20050202009A1 (published 2005).

B1: melanotransferrin p97(668-683) (peptide)
peptide: GQDLLFKDATVRAVPV
notes: Eluted from HLA-DR of dendritic cells; also called 13

Biological target: HLA-DR4 (DRB1*0401) (human)
Assay: in vitro peptide competition assay, purified HLA-DR, biotinylated HA(307-319) reporter

Q: Does TLQSFRQDVDNASLAR (Eluted from HLA-DR of dendritic cells) [vimentin(202-217)] bind?
A: Result: binds

Q: Does DKARVEVERDNLAEDIM (Eluted from HLA-DR of dendritic cells) [vimentin(167-183)] bind?
A: Result: binds

Q: Does B1 bind?
A: Result: binds
